The results in this text go back to patent US20240026011A1 (Takeda / Millennium, published 2024).

For the test, the target named is T1, EGFR (UniProt P00533 25-645, limits assumed).
T1 construct: also called target EGFR

B1: Pro90 (hEGFR1) (other)
VHH: EVQLVESGGGLVQPGGSLRLSCAASGRTFSSYAMGWFRQAPGKEREFVVAINWSSGSTYYADSVKGRFTISRDNSKNTLYLQMNSLRAEDTAVYYCAAGYQINSGNYNFKDYEYDYWGQGTLVTVSS
As usually defined, the Kd is the concentration at which binding is half-saturated. A high value points to weaker binding. For orientation: koff means a measure of how fast the partners let go of each other. Lower therefore signals a long-lived complex. As usually defined, the kon is the second-order rate constant of association. Lower therefore signals slower complex formation. In turn, B1 came in with a Kd of 2 nM, a koff of 0.00044 s⁻¹ and a kon of 221000 M⁻¹ s⁻¹.
